According to patent publication US20240018260A1 (AMUNIX PHARMACEUTICALS, published 2024):
Blank lines part the entries; values can stand above or below the binder they belong to.

Tests used:
[1] = target: T1, recombinant human EpCAM (rhEpCAM) (human, UniProt P16422 24-265); test: sandwich ELISA: rhEpCAM coated on plate, detection with peroxidase-conjugated protein L
T1 construct: Bought recombinant protein coated on the ELISA plate
T1 sequence (looked up): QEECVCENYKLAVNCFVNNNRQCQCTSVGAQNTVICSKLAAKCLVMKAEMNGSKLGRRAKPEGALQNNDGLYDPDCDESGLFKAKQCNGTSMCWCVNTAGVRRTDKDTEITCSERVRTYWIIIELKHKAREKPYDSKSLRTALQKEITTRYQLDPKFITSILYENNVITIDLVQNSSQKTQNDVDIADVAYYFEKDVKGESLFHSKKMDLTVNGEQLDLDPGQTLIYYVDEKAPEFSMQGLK
Procedure: The binding capability of anti-EpCAM×anti-CD3 ProTIA composition was verified with an EpCAM/peroxidase-conjugated protein-L sandwich ELISA. In the ELISA binding assay, recombinant human EpCAM (rhEpCAM) (Sino BiologicalR&D Systems cat #10694-H08H960-EP-50) was coated on a 96-well, flat-bottomed plate at a concentration of 0.1 microg/100 microL. After overnight incubation at 4° C., the assay plate was washed and blocked with 3% bovine serum albumin (BSA) for 1 h at room temperature. The plate was washed again followed by the introduction of a dose range of non-cleavable anti-EpCAM×anti-CD3 ProTIA (i.e., a ProTIA without the release segment cleavage sequence and AC1484, a ProTIA chimeric polypeptide assembly composition) and protease-treated and protease-untreated anti-EpCAM×anti-CD3 ProTIA (e.g. AC1476). The dose range utilized for non-cleavable and protease-treated and untreated ProTIA was 0.0006 to 5 nM, achieved with a 1:6 fold serial dilution scheme from a starting concentration of 5 nM. The plate was allowed to incubate with shaking for 1 h at room temperature to allow the non-cleavable, protease-cleaved and uncleaved ProTIA to bind to the rhEpCAM coated on the plate. Unbound components were removed with a wash step and a peroxidase-conjugated protein L (PierceThermoFisher Scientific cat #32420) was added. After an appropriate incubation period that allowed protein-L to bind to the kappa light of the scFvs, any unbound reagent was removed by a wash step followed by the addition of tetramethylbenzidine (TMB) substrate to each well. TMB is a chromogenic substrate of peroxidase. After desired color intensity was reached, 0.2 N sulfuric acid was added to stop the reaction and absorbance (OD) was measured at 450 nm using a spectrophotometer. The intensity of the color is proportional to the concentration of non-cleavable, protease-treated and untreated anti-EpCAM×anti-CD3 ProTIA captured by the rhEpCAM/protein-L sandwich ELISA. The intensity of the color produced (measured OD) was plotted against protein concentration; and the concentration of non-cleavable, protease-cleaved and uncleaved anti-EpCAM×anti-CD3 ProTIA that gave half-maximal response (EC₅₀) was derived with a 4-parameter logistic regression equation using GraphPad prism software.

[2] = target: T2, recombinant human CD3 (rhCD3εδ) (human, UniProt P07766 23-126; P04234 22-105); test: sandwich ELISA: rhCD3εδ coated on plate, detection with peroxidase-conjugated protein L
T2 chain: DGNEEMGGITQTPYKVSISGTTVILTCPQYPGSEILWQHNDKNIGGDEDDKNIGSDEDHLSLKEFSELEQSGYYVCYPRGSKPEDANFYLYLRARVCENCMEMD

[3] = target: human CD3 on purified human CD3 positive T cells (human, UniProt P07766 23-207); test: cell-based or functional assay
[4] = target: T3, human EpCAM on EpCAM positive human carcinoma cells (SW480, SK-OV-3) (human, UniProt P16422 24-314); test: cell-based or functional assay
T3 sequence (looked up): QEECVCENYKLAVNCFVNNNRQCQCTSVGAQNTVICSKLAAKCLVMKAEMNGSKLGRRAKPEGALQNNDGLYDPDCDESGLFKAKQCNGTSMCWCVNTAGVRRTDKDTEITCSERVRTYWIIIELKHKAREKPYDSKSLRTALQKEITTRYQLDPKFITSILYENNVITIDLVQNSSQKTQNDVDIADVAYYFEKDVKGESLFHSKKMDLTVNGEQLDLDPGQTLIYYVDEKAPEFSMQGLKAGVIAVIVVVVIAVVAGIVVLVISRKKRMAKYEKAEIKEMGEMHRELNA

EC50 [1]: 0.32 nM
EC50 [2]: 2.2 nM
B1: AC1484, non-cleavable anti-EpCAM×anti-CD3 ProTIA (without the release segment cleavage sequence) (bispecific antibody)
chain: DIQMTQSPSSLSASVGDRVTITCRSTKSLLHSNGITYLYWYQQKPGKAPKLLIYQMSNLASGVPSRFSSSGSGTDFTLTISSLQPEDFATYYCAQNLEIPRTFGQGTKVEIKGATPPETGAETESPGETTGGSAESEPPGEGQVQLVQSGPGLVQPGGSVRISCAASGYTFTNYGMNWVKQAPGKGLEWMGWINTYTGESTYADSFKGRFTFSLDTSASAAYLQINSLRAEDTAVYYCARFAIKGDYWGQGTLLTVSSGGGGSDIQMTQSPSSLSASVGDRVTITCRASQDIRNYLNWYQQKPGKAPKLLIYYTSRLESGVPSRFSGSGSGTDYTLTISSLQPEDFATYYCQQGNTLPWTFGQGTKVEIKGATPPETGAETESPGETTGGSAESEPPGEGEVQLVESGGGLVQPGGSLRLSCAASGYSFTGYTMNWVRQAPGKGLEWVALINPYKGVSTYNQKFKDRFTISVDKSKNTAYLQMNSLRAEDTAVYYCARSGYYGDSDWYFDVWGQGTLVTVSSGSPGSPAGSPTSTEEGTSESATPESGPGTSTEPSEGSAPGSPAGSPTSTEEGTSTEPSEGSAPGTSTEPSEGSAPGTSESATPESGPGSEPATSGSETPGSEPATSGSETPGSPAGSPTSTEEGTSESATPESGPGTSTEPSEGSAPGTSTEPSEGSAPGSPAGSPTSTEEGTSTEPSEGSAPGTSTEPSEGSAPGTSESATPESGPGTSTEPSEGSAPGTSESATPESGPGSEPATSGSETPGTSTEPSEGSAPGTSTEPSEGSAPGTSESATPESGPGTSESATPESGPGSPAGSPTSTEEGTSESATPESGPGSEPATSGSETPGTSESATPESGPGTSTEPSEGSAPGTSTEPSEGSAPGTSTEPSEGSAPGTSTEPSEGSAPGTSTEPSEGSAPGTSTEPSEGSAPGSPAGSPTSTEEGTSTEPSEGSAPGTSESATPESGPGSEPATSGSETPGTSESATPESGPGSEPATSGSETPGTSESATPESGPGTSTEPSEGSAPGTSESATPESGPGSPAGSPTSTEEGSPAGSPTSTEEGSPAGSPTSTEEGTSESATPESGPGTSTEPSEGSAPGTSESATPESGPGSEPATSGSETPGTSESATPESGPGSEPATSGSETPGTSESATPESGPGTSTEPSEGSAPGSPAGSPTSTEEGTSESATPESGPGSEPATSGSETPGTSESATPESGPGSPAGSPTSTEEGSPAGSPTSTEEGTSTEPSEGSAPGTSESATPESGPGTSESATPESGPGTSESATPESGPGSEPATSGSETPGSEPATSGSETPGSPAGSPTSTEEGTSTEPSEGSAPGTSTEPSEGSAPGSEPATSGSETPGTSESATPESGPGTSTEPSEGSAPGHHHHHH
notes: also called non-cleavable ProTIA; protease-noncleavable anti-EpCAM×anti-CD3 ProTIA
EC50, LDH release cytotoxicity, purified human CD3 positive T cells:OVCAR-3 5:1 [3]: 0.086 nM
EC50, LDH release cytotoxicity, purified human CD3 positive T cells:SK-OV-3 5:1 [3]: 2.66 nM
EC50, LDH release cytotoxicity, PBMC:SK-OV-3 5:1 [4]: 1.79 nM

EC50 [1]: 0.28 nM
fold hindrance of binding by XTEN864, against protease-treated ProTIA [1]: ≥ 2.3 fold
EC50 [2]: 1.8 nM
fold hindrance of binding by XTEN864, against the cleaved and released anti-CD3scFv portion [2]: ~5.8 fold
B2: AC1476 aEpCAM-aCD3-BSRS1-XTEN_AE864-His(6), protease-untreated (intact) anti-EpCAM×anti-CD3 ProTIA (bispecific antibody)
chain: DIQMTQSPSSLSASVGDRVTITCRSTKSLLHSNGITYLYWYQQKPGKAPKLLIYQMSNLASGVPSRFSSSGSGTDFTLTISSLQPEDFATYYCAQNLEIPRTFGQGTKVEIKGATPPETGAETESPGETTGGSAESEPPGEGQVQLVQSGPGLVQPGGSVRISCAASGYTFTNYGMNWVKQAPGKGLEWMGWINTYTGESTYADSFKGRFTFSLDTSASAAYLQINSLRAEDTAVYYCARFAIKGDYWGQGTLLTVSSGGGGSDIQMTQSPSSLSASVGDRVTITCRASQDIRNYLNWYQQKPGKAPKLLIYYTSRLESGVPSRFSGSGSGTDYTLTISSLQPEDFATYYCQQGNTLPWTFGQGTKVEIKGATPPETGAETESPGETTGGSAESEPPGEGEVQLVESGGGLVQPGGSLRLSCAASGYSFTGYTMNWVRQAPGKGLEWVALINPYKGVSTYNQKFKDRFTISVDKSKNTAYLQMNSLRAEDTAVYYCARSGYYGDSDWYFDVWGQGTLVTVSSGTAEAASASGLSGRSDNHSPLGLAGSPGSPAGSPTSTEEGTSESATPESGPGTSTEPSEGSAPGSPAGSPTSTEEGTSTEPSEGSAPGTSTEPSEGSAPGTSESATPESGPGSEPATSGSETPGSEPATSGSETPGSPAGSPTSTEEGTSESATPESGPGTSTEPSEGSAPGTSTEPSEGSAPGSPAGSPTSTEEGTSTEPSEGSAPGTSTEPSEGSAPGTSESATPESGPGTSTEPSEGSAPGTSESATPESGPGSEPATSGSETPGTSTEPSEGSAPGTSTEPSEGSAPGTSESATPESGPGTSESATPESGPGSPAGSPTSTEEGTSESATPESGPGSEPATSGSETPGTSESATPESGPGTSTEPSEGSAPGTSTEPSEGSAPGTSTEPSEGSAPGTSTEPSEGSAPGTSTEPSEGSAPGTSTEPSEGSAPGSPAGSPTSTEEGTSTEPSEGSAPGTSESATPESGPGSEPATSGSETPGTSESATPESGPGSEPATSGSETPGTSESATPESGPGTSTEPSEGSAPGTSESATPESGPGSPAGSPTSTEEGSPAGSPTSTEEGSPAGSPTSTEEGTSESATPESGPGTSTEPSEGSAPGTSESATPESGPGSEPATSGSETPGTSESATPESGPGSEPATSGSETPGTSESATPESGPGTSTEPSEGSAPGSPAGSPTSTEEGTSESATPESGPGSEPATSGSETPGTSESATPESGPGSPAGSPTSTEEGSPAGSPTSTEEGTSTEPSEGSAPGTSESATPESGPGTSESATPESGPGTSESATPESGPGSEPATSGSETPGSEPATSGSETPGSPAGSPTSTEEGTSTEPSEGSAPGTSTEPSEGSAPGSEPATSGSETPGTSESATPESGPGTSTEPSEGSAPGHHHHHH
notes: also called ProTIA-X; protease-untreated anti-EpCAM×anti-CD3 ProTIA
EC50, LDH release cytotoxicity, purified human CD3 positive T cells:OVCAR-3 5:1 [3]: 0.0007 nM
EC50, LDH release cytotoxicity, purified human CD3 positive T cells:SK-OV-3 5:1 [3]: 0.134 nM
EC50, LDH release cytotoxicity, PBMC:SK-OV-3 5:1 [4]: 0.136 nM
